These results are taken from patent US12006368 (SURROZEN OPERATING, dated 2024).

Assay [1] addresses T1, Fzd1 cysteine rich domain (CRD), C-terminally biotinylated (human, UniProt Q9UP38 101-230). Put plainly: BLI; **=Kd >100 nM. On the procedure: (§1) Binding kinetics of antibody fragments to a variety of Fzd cysteine rich domain (CRD) protein targets (Fzd1, Fzd2, Fzd3, Fzd4, Fzd5, Fzd6, Fzd7, Fzd8, Fzd9 and/or Fzd10 CRDs) was determined by bio-layer interferometry (BLI) using Octet Red 96 (PALL ForteBio, Fremont, CA) instruments at 30° C., 1000 rpm with streptavidin (SA) biosensors. C-terminal biotinylated Fzd CRD recombinant protein was diluted to 20 nM in the running buffer (PBS, 0.05% Tween-20, 0.5% BSA, pH 7.2) and captured to the SA biosensor until coupling length reached 0.2 nm. Following capture of the Fzd CRD, the SA biosensor with captured biotinylated-Fzd CRD was dipped into wells containing the relevant antibody fragment at […] (0, 1.37, 4.12, 12.4, 37, 111.1, 333.3, 1000 nM) in running buffer, plus a well with only running buffer as a reference channel. […] was determined by global fitting, 1:1 binding model according to manufacturer recommended settings.
One antibody fragment, clone 001S-A04, was selected for alanine-scanning mutagenesis of CDRs, and the respective Fzd1 binding affinities of the various mutants were determined by Octet BLI as described in Example 1.

Assay [2] has as its target Fzd2 cysteine rich domain (CRD), C-terminally biotinylated (human, UniProt Q14332 24-155). Kind of assay: BLI; **=Kd 100-2000 nM. On the procedure:
as §1
(§2) Table 1B provides clone IDs, the sequence identifier number of the antibody heavy chain fragment and/or light chain fragment, if present, for illustrative clones. In certain embodiments, the Fzd binding domain is an Fab or was derived from an Fab, so the heavy chain of Table 1B includes VH and CH1 sequence, but not CH2 or CH3 sequences. In certain embodiments, the Fzd binding domain is a VHH or sdAb® or was derived from a VHH or sdAb, so Table 1B includes the VHH domain. […] The Kd values were determined by BLI as described above. Blank entries denote that the binding to the specific Fzd receptor has not yet been determined. The entry of "n.b." indicates no binding.

Assay [3] deals with T1, Fzd1 cysteine rich domain (CRD), …. Put plainly: BLI; *=Kd <100 nM. The procedure:
as §1, §2
For orientation: In BLI a coated tip is dipped into the sample, and binding shifts an interference pattern.

Assay [4] addresses Fzd7 cysteine rich domain (CRD), C-terminally biotinylated (human, UniProt O75084 36-165). Kind of assay: BLI; **=Kd 100-2000 nM. The procedure: as §1, §2
Assay [5] deals with T1, Fzd1 cysteine rich domain (CRD), …. Put plainly: BLI; **=Kd 100-2000 nM. On the procedure: as §1, §2

Numbering of substitutions follows the chain as printed.

B1: 001S-A04 mutant VHT6A (Fab, V domains shown)
VH: EVQLVQSGAEVKKPGASVKVSCKASGYTFTSYGISWVRQAPGQGLEWMGWISAYNGNTNYAQKLQGRVTMTTDTSTSTAYMELRSLRSDDTAVYYCASSKEKAAYYYGMDVWGQGTTVTVSS
VL: QAVVLQEPSLSVSPGGTVTLTCGLSSGSVSTNYYPSWYQQTPGQAPRTLIYYTNTRSSDVPERFSGSIVGNKAALTITGAQPDDESVYFCLLYLGRGIWVFGGGTKLTVLG
As usually defined, the KD is the constant that tells how readily two partners part at equilibrium. In the case of B1, the KD in assay [1] is above 100 nM.

B2: 001S-A04 mutant VLW9A (Fab, V domains shown)
VH: B1 VH with A104T
VL: B1 VL with W99A
On to B2, for which, in assay [1], the KD was above 100 nM.

B3: 001S-A04 mutant VHY7A (Fab, V domains shown)
VH: B1 VH with A104T, Y105A
VL: B1 VL
The molecule B3 returned a KD in assay [1] above 100 nM.

B4: 001S-A04 mutant VHY9A (Fab, V domains shown)
VH: B1 VH with A104T, Y107A
VL: B1 VL
As to B4, the KD in assay [1] is above 100 nM.

B5: 005S-H05 (Fab, V domains shown)
VH: QVQLVQSGAEVKKPGASVKVSCKASGYTFTSYYMHWVRQAPGQGLEWMGRINPNSGGTNYAQKFQGRVTMTRDTSTSTVYMELSSLRSEDTAVYYCARVPDFWSGYLDYWGQGTLVTVSS
VL: DIQMTQSPSSLSASVGDRVTITCRASQGISSALAWYQQKPGKAPKLLIYAASSLQSGVPSRFSGSGSGTDFTLTISSLQPEDFATYYCQQTYSMPITFGQGTRLEIKR
Broadly, the Kd is a measure of binding affinity in units of concentration. B5: in assay [2], the Kd is 100 to 2000 nM.

B6: 003S-E07 (Fab, V domains shown)
VH: QVQLVQSGAEVKKPGSSVKVSCKASGYTFTNNFMHWVRQAPGQGLEWMGWINPNSGGTKYAQKFQGRVTITADESTSTAYMELSSLRSEDTAVYYCARSVGEVGATMLGIGVWYWFDPWGQGTLVTVSS
VL: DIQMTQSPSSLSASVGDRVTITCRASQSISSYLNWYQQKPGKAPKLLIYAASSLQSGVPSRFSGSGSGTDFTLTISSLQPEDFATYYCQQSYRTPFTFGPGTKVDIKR
notes: also called R2M9
On to B6, for which the Kd in assay [2] lay in the range of 100 to 2000 nM.

B7: 001S-A03 (Fab, V domains shown)
VH: QLQLQESGPGLVKPSQTLSLTCTVSGGSISSGGYYWSWIRQHPGKGLEWIGYIYYSGSTYYNPSLKSRVTISVDKSKNQFSLKLSSVTAADTAVYYCARVRDYYDSSGYYYDYFDYWGQGTLVTVSS
VL: DIQLTQSPSSLSASVGDRVTITCRASRSISSYFNWYQQKPGKAPKLLIYAASSLQSGVPSRFSGSRSGTDFTLTISSLQPEDFATYYCQQADTFPPTFGQGTRLEIKR
For B7, the equilibrium dissociation constant (Kd) was below 100 nM in assay [3], 100 to 2000 nM in assay [4] and 100 to 2000 nM in assay [2].

B8: 001S-B03 (Fab, V domains shown)
VH: QVQLQQWGAGLLKPSETLSLTCAVSGASFSGHYWTWIRQPPGKGLEWIGEIDHTGSTNYEPSLRSRVTISVDTSKNQFSLNLKSVTAADTAVYYCARGGQGGYDWGHYHGLDVWGQGTTVTVSS
VL: SYVLTQPPSVSVSPGQTASITCSGDKVGHKYASWYQQKPGQSPVLVIYEDSQRPSGIPVRFSGSNSGNTATLTISGTQAMDEADYYCQAWDSSTDVVFGGGTKLTVLG
notes: also called 1RC07
Molecule B8 showed a Kd in assay [3] below 100 nM.

B9: 002S-B01 (VHH)
VHH: EVQLVESGGGLVQAGGSLRLSCTASGSTFSNYAMGWFRQAPGKEREFVAAISWGGGSTFYSGSVKGRFTISRDSAKNTVHLQMDSLIPEDTAVYYCAAGPIARWYRGDMDYWGKGTLVTVSS
As to B9, the Kd in assay [3] was below 100 nM.

B10: 002S-D04 (VHH)
VHH: QVKLEESGGGLVQAGGSLRLSCAASGGTSSTYAMGWFRQAPGKEREFVAAINRSGGSTYYADSVKGRFTISRDNAKNTVYLQMNSLNPEDTAVYYCAAVFLSRNYEIQEYYRYQGQGTQVTVSS
In turn, B10 had a Kd in assay [5] of 100 to 2000 nM.

B11: 001S-H02 (Fab, V domains shown)
VH: QVQLQESGPGLVKPSETLSLTCTVSGGSISSSSYYWGWIRQHPGKGLEWIGYIYYSGSTYYNPSLKSRVTISVDTSKNQFSLKLNSVTAADTAVYYCARATYGGDAFDIWGQGTMVTVSS
VL: QSVVTQPPSVSGAPGQRVTISCTRSSSNIGAGYDVHWYQQHPGTAPKLLIFGNSIRPSGVPDRFSGSKSGTSATLGITGLQTGDEADYYCGTWDSSLSAWVFGGGTKLTVLG
On to B11, for which the Kd in assay [4], in assay [5] and in assay [2] was 100 to 2000 nM throughout.

B12: 002S-A04 (VHH)
VHH: AVQLVESGGGLVQAGGSLRLSCTASGRTFSSYAMGWFRQAPGKEREFVAAISWSGRSTYYADSVKGRFTISRDNAKNTVYLQMNSLKSEDTAAYYCAAGPIARWYRGDMDYWGKGTLVTVSS
In the case of B12, the Kd in assay [3] is below 100 nM.

B13: 002S-C02 (VHH)
VHH: B9 VHH with E1D, A14T, T23V, S27R, S30R, N31A, A49S, G54S, F59Y, S61A
For the molecule B13, the dissociation constant (Kd) in assay [3] is below 100 nM.

B14: 001S-B01 (Fab, V domains shown)
VH: QLQLQESGSGLVKPSQTLSLTCAVSGGSISSGGYSWSWIRQPPGKGLEWIGSIYHSGSTYYNPSLKSRLTISVDTSKNQFSLKLSSVTAADTAVYYCARFYYDILTGYSYFDYWGQGTLVTVSS
VL: DIVMTHTPLSLSVTPGEPASISCRSSRSLLDTDDGNTYLDWYLQKPGQSPQLLIHTLSHRASGVPDRFSGSGSGTDFTLKISRVEAEDVGVYYCMQSIQLPWTFGQGTKVEIKR
For the molecule B14, the dissociation constant Kd in assay [4], in assay [5] and in assay [2] was 100 to 2000 nM each time.

B15: 001S-G02 (Fab, V domains shown)
VH: QVQLQESGPGLVKPSETLSLTCTVSGGAISGTSYFWGWIRQPPGKGLEWIGSIYYTGNTYYNPSLKSRLTVSVDTSKNQFSLNLNSVTAADTATYYCARIGIAVAAPVDHWGQGTLVTVSS
VL: EIVLTQSPATLSLSPGEGATLSCRASQSVGTYLTWYRQKPGQAPRLLIYDASNRATGIPARFSGSGAGTDFTLKISRVEAEDVGVYYCMQATQFPLTFGQGTKVEIKR
B15: the Kd in assay [4], in assay [5] and in assay [2] was 100 to 2000 nM throughout.

B16: 002S-B04 (VHH)
VHH: DVQLVESGGGLVQAGGSLRLSCAASGRTFSSYAMGWFRQAPGKEREFVAAISWSGGSTYYADSVKGRFTISRDNAKNTVYLQMNSLKPEDTAVYYCAAGPNYSWFMPSSSRLIWGQGTLVTVSS
B16 came in with a Kd in assay [5] of 100 to 2000 nM.
